Where no end group is shown, it is not given here. [ ]: non-standard residue; d: D form. Aib = CC(C)(N)C(=O)O
B1: Compound A33 (peptide)
peptide: YSHGTFTSDHSKWLD[Aib]KRAQEFV[Aib]WLEDEPSSGAPPPS-OH
modifications: N-terminus assumed
SMILES: CC(C)C[C@H](NC(=O)[C@H](Cc1c[nH]c2ccccc12)NC(=O)[C@H](CCCCN)NC(=O)[C@H](CO)NC(=O)[C@H](Cc1c[nH]cn1)NC(=O)[C@H](CC(=O)O)NC(=O)[C@H](CO)NC(=O)[C@@H](NC(=O)[C@H](Cc1ccccc1)NC(=O)[C@@H](NC(=O)CNC(=O)[C@H](Cc1c[nH]cn1)NC(=O)[C@H](CO)NC(=O)[C@@H](N)Cc1ccc(O)cc1)[C@@H](C)O)[C@@H](C)O)C(=O)N[C@@H](CC(=O)O)C(=O)NC(C)(C)C(=O)N[C@@H](CCCCN)C(=O)N[C@@H](CCCNC(=N)N)C(=O)N[C@@H](C)C(=O)N[C@@H](CCC(N)=O)C(=O)N[C@@H](CCC(=O)O)C(=O)N[C@@H](Cc1ccccc1)C(=O)N[C@H](C(=O)NC(C)(C)C(=O)N[C@@H](Cc1c[nH]c2ccccc12)C(=O)N[C@@H](CC(C)C)C(=O)N[C@@H](CCC(=O)O)C(=O)N[C@@H](CC(=O)O)C(=O)N[C@@H](CCC(=O)O)C(=O)N1CCC[C@H]1C(=O)N[C@@H](CO)C(=O)N[C@@H](CO)C(=O)NCC(=O)N[C@@H](C)C(=O)N1CCC[C@H]1C(=O)N1CCC[C@H]1C(=O)N1CCC[C@H]1C(=O)N[C@@H](CO)C(=O)O)C(C)C
B2: Compound A38 (peptide)
peptide: YSHGTFTSDYSKWLDSARAQEFVKWLEDEPSSGAPPPS-OH
B3: Compound A42 (peptide)
peptide: YTHGTFTSDYSKWLDSKRAQEFVKWLEDEPSSGAPPPS-OH
B4: Compound A44 (peptide)
peptide: YSHGTFTSDYSKYLDQARAQEFVKWLEDEPSSGAPPPS-OH
B5: Compound A41 (peptide)
peptide: YTHGTFTSDHSKWLDEARAQEFVKWLEDEPSSGAPPPS-OH
B6: Compound A45 (peptide)
peptide: YSHGTFTSDYSKYLD[Aib]KRAQEFV[Aib]WLEDEKRNKPPPA-OH
modifications: N-terminus assumed
SMILES: CC(C)C[C@H](NC(=O)[C@H](Cc1ccc(O)cc1)NC(=O)[C@H](CCCCN)NC(=O)[C@H](CO)NC(=O)[C@H](Cc1ccc(O)cc1)NC(=O)[C@H](CC(=O)O)NC(=O)[C@H](CO)NC(=O)[C@@H](NC(=O)[C@H](Cc1ccccc1)NC(=O)[C@@H](NC(=O)CNC(=O)[C@H](Cc1c[nH]cn1)NC(=O)[C@H](CO)NC(=O)[C@@H](N)Cc1ccc(O)cc1)[C@@H](C)O)[C@@H](C)O)C(=O)N[C@@H](CC(=O)O)C(=O)NC(C)(C)C(=O)N[C@@H](CCCCN)C(=O)N[C@@H](CCCNC(=N)N)C(=O)N[C@@H](C)C(=O)N[C@@H](CCC(N)=O)C(=O)N[C@@H](CCC(=O)O)C(=O)N[C@@H](Cc1ccccc1)C(=O)N[C@H](C(=O)NC(C)(C)C(=O)N[C@@H](Cc1c[nH]c2ccccc12)C(=O)N[C@@H](CC(C)C)C(=O)N[C@@H](CCC(=O)O)C(=O)N[C@@H](CC(=O)O)C(=O)N[C@@H](CCC(=O)O)C(=O)N[C@@H](CCCCN)C(=O)N[C@@H](CCCNC(=N)N)C(=O)N[C@@H](CC(N)=O)C(=O)N[C@@H](CCCCN)C(=O)N1CCC[C@H]1C(=O)N1CCC[C@H]1C(=O)N1CCC[C@H]1C(=O)N[C@@H](C)C(=O)O)C(C)C
B7: Compound A40 (peptide)
peptide: YSHGTFTSDHSKWLDSARAQEFVKWLEDEPSSGAPPPS-OH
B8: Compound A39 (peptide)
peptide: YTHGTFTSDYSKWLDSARAQEFVKWLEDEPSSGAPPPS-OH
B9: Compound A37 (peptide)
peptide: YSHGTFTSDYSKYLDSARAQEFVKWLEDEPSSGAPPPS-OH
B10: Compound A46 (peptide)
peptide: YSHGTFTSDYSKYLD[Aib]KRAQEFV[Aib]WLEDEKRNKPPIA-OH
modifications: N-terminus assumed
SMILES: CC[C@H](C)[C@H](NC(=O)[C@@H]1CCCN1C(=O)[C@@H]1CCCN1C(=O)[C@H](CCCCN)NC(=O)[C@H](CC(N)=O)NC(=O)[C@H](CCCNC(=N)N)NC(=O)[C@H](CCCCN)NC(=O)[C@H](CCC(=O)O)NC(=O)[C@H](CC(=O)O)NC(=O)[C@H](CCC(=O)O)NC(=O)[C@H](CC(C)C)NC(=O)[C@H](Cc1c[nH]c2ccccc12)NC(=O)C(C)(C)NC(=O)[C@@H](NC(=O)[C@H](Cc1ccccc1)NC(=O)[C@H](CCC(=O)O)NC(=O)[C@H](CCC(N)=O)NC(=O)[C@H](C)NC(=O)[C@H](CCCNC(=N)N)NC(=O)[C@H](CCCCN)NC(=O)C(C)(C)NC(=O)[C@H](CC(=O)O)NC(=O)[C@H](CC(C)C)NC(=O)[C@H](Cc1ccc(O)cc1)NC(=O)[C@H](CCCCN)NC(=O)[C@H](CO)NC(=O)[C@H](Cc1ccc(O)cc1)NC(=O)[C@H](CC(=O)O)NC(=O)[C@H](CO)NC(=O)[C@@H](NC(=O)[C@H](Cc1ccccc1)NC(=O)[C@@H](NC(=O)CNC(=O)[C@H](Cc1c[nH]cn1)NC(=O)[C@H](CO)NC(=O)[C@@H](N)Cc1ccc(O)cc1)[C@@H](C)O)[C@@H](C)O)C(C)C)C(=O)N[C@@H](C)C(=O)O
B11: Compound A43 (peptide)
peptide: YSHGTFTSDYSKYLDKARAQEFVKWLEDEPSSGAPPPS-OH
B12: Compound A36 (peptide)
peptide: YSHGTFTSDHSKWLD[Aib]ARAQEFV[Aib]WLEDEPSSGAPPPS-OH
modifications: N-terminus assumed
SMILES: CC(C)C[C@H](NC(=O)[C@H](Cc1c[nH]c2ccccc12)NC(=O)[C@H](CCCCN)NC(=O)[C@H](CO)NC(=O)[C@H](Cc1c[nH]cn1)NC(=O)[C@H](CC(=O)O)NC(=O)[C@H](CO)NC(=O)[C@@H](NC(=O)[C@H](Cc1ccccc1)NC(=O)[C@@H](NC(=O)CNC(=O)[C@H](Cc1c[nH]cn1)NC(=O)[C@H](CO)NC(=O)[C@@H](N)Cc1ccc(O)cc1)[C@@H](C)O)[C@@H](C)O)C(=O)N[C@@H](CC(=O)O)C(=O)NC(C)(C)C(=O)N[C@@H](C)C(=O)N[C@@H](CCCNC(=N)N)C(=O)N[C@@H](C)C(=O)N[C@@H](CCC(N)=O)C(=O)N[C@@H](CCC(=O)O)C(=O)N[C@@H](Cc1ccccc1)C(=O)N[C@H](C(=O)NC(C)(C)C(=O)N[C@@H](Cc1c[nH]c2ccccc12)C(=O)N[C@@H](CC(C)C)C(=O)N[C@@H](CCC(=O)O)C(=O)N[C@@H](CC(=O)O)C(=O)N[C@@H](CCC(=O)O)C(=O)N1CCC[C@H]1C(=O)N[C@@H](CO)C(=O)N[C@@H](CO)C(=O)NCC(=O)N[C@@H](C)C(=O)N1CCC[C@H]1C(=O)N1CCC[C@H]1C(=O)N1CCC[C@H]1C(=O)N[C@@H](CO)C(=O)O)C(C)C
B13: Compound A34 (peptide)
peptide: YTHGTFTSDHSKWLD[Aib]KRAQEFV[Aib]WLEDEPSSGAPPPS-OH
modifications: N-terminus assumed
SMILES: CC(C)C[C@H](NC(=O)[C@H](Cc1c[nH]c2ccccc12)NC(=O)[C@H](CCCCN)NC(=O)[C@H](CO)NC(=O)[C@H](Cc1c[nH]cn1)NC(=O)[C@H](CC(=O)O)NC(=O)[C@H](CO)NC(=O)[C@@H](NC(=O)[C@H](Cc1ccccc1)NC(=O)[C@@H](NC(=O)CNC(=O)[C@H](Cc1c[nH]cn1)NC(=O)[C@@H](NC(=O)[C@@H](N)Cc1ccc(O)cc1)[C@@H](C)O)[C@@H](C)O)[C@@H](C)O)C(=O)N[C@@H](CC(=O)O)C(=O)NC(C)(C)C(=O)N[C@@H](CCCCN)C(=O)N[C@@H](CCCNC(=N)N)C(=O)N[C@@H](C)C(=O)N[C@@H](CCC(N)=O)C(=O)N[C@@H](CCC(=O)O)C(=O)N[C@@H](Cc1ccccc1)C(=O)N[C@H](C(=O)NC(C)(C)C(=O)N[C@@H](Cc1c[nH]c2ccccc12)C(=O)N[C@@H](CC(C)C)C(=O)N[C@@H](CCC(=O)O)C(=O)N[C@@H](CC(=O)O)C(=O)N[C@@H](CCC(=O)O)C(=O)N1CCC[C@H]1C(=O)N[C@@H](CO)C(=O)N[C@@H](CO)C(=O)NCC(=O)N[C@@H](C)C(=O)N1CCC[C@H]1C(=O)N1CCC[C@H]1C(=O)N1CCC[C@H]1C(=O)N[C@@H](CO)C(=O)O)C(C)C
B14: Compound A35 (peptide)
peptide: YTHGTFTSDYSKWLD[Aib]ARAQEFV[Aib]WLEDEPSSGAPPPS-OH
modifications: N-terminus assumed
SMILES: CC(C)C[C@H](NC(=O)[C@H](Cc1c[nH]c2ccccc12)NC(=O)[C@H](CCCCN)NC(=O)[C@H](CO)NC(=O)[C@H](Cc1ccc(O)cc1)NC(=O)[C@H](CC(=O)O)NC(=O)[C@H](CO)NC(=O)[C@@H](NC(=O)[C@H](Cc1ccccc1)NC(=O)[C@@H](NC(=O)CNC(=O)[C@H](Cc1c[nH]cn1)NC(=O)[C@@H](NC(=O)[C@@H](N)Cc1ccc(O)cc1)[C@@H](C)O)[C@@H](C)O)[C@@H](C)O)C(=O)N[C@@H](CC(=O)O)C(=O)NC(C)(C)C(=O)N[C@@H](C)C(=O)N[C@@H](CCCNC(=N)N)C(=O)N[C@@H](C)C(=O)N[C@@H](CCC(N)=O)C(=O)N[C@@H](CCC(=O)O)C(=O)N[C@@H](Cc1ccccc1)C(=O)N[C@H](C(=O)NC(C)(C)C(=O)N[C@@H](Cc1c[nH]c2ccccc12)C(=O)N[C@@H](CC(C)C)C(=O)N[C@@H](CCC(=O)O)C(=O)N[C@@H](CC(=O)O)C(=O)N[C@@H](CCC(=O)O)C(=O)N1CCC[C@H]1C(=O)N[C@@H](CO)C(=O)N[C@@H](CO)C(=O)NCC(=O)N[C@@H](C)C(=O)N1CCC[C@H]1C(=O)N1CCC[C@H]1C(=O)N1CCC[C@H]1C(=O)N[C@@H](CO)C(=O)O)C(C)C

These binders were tested against human glucagon receptor (GCGR) (human, UniProt P47871 26-477) (assay: cell-based or functional assay).
B1 was tested, and the “hGCGR pEC50 (cAMP)” value was 10.9 pEC50.
In the case of B2, the “hGCGR pEC50 (cAMP)” value is reported as 13.7 pEC50.
In the case of B3, the “hGCGR pEC50 (cAMP)” value is reported as 9.4 pEC50.
For B4, the “hGCGR pEC50 (cAMP)” value was 11.9 pEC50.
B5 was tested, and the “hGCGR pEC50 (cAMP)” value was 9.2 pEC50.
In the case of B6, the “hGCGR pEC50 (cAMP)” value is reported as 11.7 pEC50.
With B7 the “hGCGR pEC50 (cAMP)” value was 10.1 pEC50.
With B8 the “hGCGR pEC50 (cAMP)” value was 9.4 pEC50.
With B9 the “hGCGR pEC50 (cAMP)” value was 13 pEC50.
For B10, the “hGCGR pEC50 (cAMP)” value was 12.5 pEC50.
B11 was tested, and the “hGCGR pEC50 (cAMP)” value was 11.8 pEC50.
B12 was tested, and the “hGCGR pEC50 (cAMP)” value was 10.2 pEC50.
With B13 the “hGCGR pEC50 (cAMP)” value was 10.3 pEC50.
In the case of B14, the “hGCGR pEC50 (cAMP)” value is reported as 13.2 pEC50.

These binders were tested against human GLP-1 receptor (GLP-1R) (human, UniProt P43220 24-463) (assay: cell-based or functional assay).
human GLP-1 receptor (GLP-1R), sequence (P43220 24-463): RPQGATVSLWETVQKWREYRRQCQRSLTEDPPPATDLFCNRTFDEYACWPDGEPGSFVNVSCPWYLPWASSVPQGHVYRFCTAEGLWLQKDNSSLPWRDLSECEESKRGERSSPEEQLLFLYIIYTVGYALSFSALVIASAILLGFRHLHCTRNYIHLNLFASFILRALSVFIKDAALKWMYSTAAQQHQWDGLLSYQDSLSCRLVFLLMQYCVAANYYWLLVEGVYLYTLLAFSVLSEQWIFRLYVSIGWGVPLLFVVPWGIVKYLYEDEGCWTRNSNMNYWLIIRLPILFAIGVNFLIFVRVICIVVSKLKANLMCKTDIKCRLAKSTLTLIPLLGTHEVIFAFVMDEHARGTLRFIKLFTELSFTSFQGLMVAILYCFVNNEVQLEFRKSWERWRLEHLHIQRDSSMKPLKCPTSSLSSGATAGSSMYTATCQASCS
For B1, the “hGLP1 pEC50 (cAMP)” value was less than 9 pEC50.
For B2, the “hGLP1 pEC50 (cAMP)” value was less than 9 pEC50.
With B3 the “hGLP1 pEC50 (cAMP)” value was less than 9 pEC50.
With B4 the “hGLP1 pEC50 (cAMP)” value was less than 9 pEC50.
B5 was tested, and the “hGLP1 pEC50 (cAMP)” value was less than 9 pEC50.
With B6 the “hGLP1 pEC50 (cAMP)” value was less than 9 pEC50.
For B7, the “hGLP1 pEC50 (cAMP)” value was less than 9 pEC50.
In the case of B8, the “hGLP1 pEC50 (cAMP)” value is reported as less than 9 pEC50.
In the case of B9, the “hGLP1 pEC50 (cAMP)” value is reported as less than 9 pEC50.
B10 was tested, and the “hGLP1 pEC50 (cAMP)” value was less than 9 pEC50.
In the case of B11, the “hGLP1 pEC50 (cAMP)” value is reported as less than 9 pEC50.
B12 was tested, and the “hGLP1 pEC50 (cAMP)” value was less than 9 pEC50.
In the case of B13, the “hGLP1 pEC50 (cAMP)” value is reported as less than 9 pEC50.
In the case of B14, the “hGLP1 pEC50 (cAMP)” value is reported as less than 9 pEC50.

— patent US20180009871A1 (INTARCIA THERAPEUTICS, published 2018)
